For the test, the target named is T1, RNA polymerase I subunit A135 (S. cerevisiae, UniProt P22138 1-1203).
T1 sequence: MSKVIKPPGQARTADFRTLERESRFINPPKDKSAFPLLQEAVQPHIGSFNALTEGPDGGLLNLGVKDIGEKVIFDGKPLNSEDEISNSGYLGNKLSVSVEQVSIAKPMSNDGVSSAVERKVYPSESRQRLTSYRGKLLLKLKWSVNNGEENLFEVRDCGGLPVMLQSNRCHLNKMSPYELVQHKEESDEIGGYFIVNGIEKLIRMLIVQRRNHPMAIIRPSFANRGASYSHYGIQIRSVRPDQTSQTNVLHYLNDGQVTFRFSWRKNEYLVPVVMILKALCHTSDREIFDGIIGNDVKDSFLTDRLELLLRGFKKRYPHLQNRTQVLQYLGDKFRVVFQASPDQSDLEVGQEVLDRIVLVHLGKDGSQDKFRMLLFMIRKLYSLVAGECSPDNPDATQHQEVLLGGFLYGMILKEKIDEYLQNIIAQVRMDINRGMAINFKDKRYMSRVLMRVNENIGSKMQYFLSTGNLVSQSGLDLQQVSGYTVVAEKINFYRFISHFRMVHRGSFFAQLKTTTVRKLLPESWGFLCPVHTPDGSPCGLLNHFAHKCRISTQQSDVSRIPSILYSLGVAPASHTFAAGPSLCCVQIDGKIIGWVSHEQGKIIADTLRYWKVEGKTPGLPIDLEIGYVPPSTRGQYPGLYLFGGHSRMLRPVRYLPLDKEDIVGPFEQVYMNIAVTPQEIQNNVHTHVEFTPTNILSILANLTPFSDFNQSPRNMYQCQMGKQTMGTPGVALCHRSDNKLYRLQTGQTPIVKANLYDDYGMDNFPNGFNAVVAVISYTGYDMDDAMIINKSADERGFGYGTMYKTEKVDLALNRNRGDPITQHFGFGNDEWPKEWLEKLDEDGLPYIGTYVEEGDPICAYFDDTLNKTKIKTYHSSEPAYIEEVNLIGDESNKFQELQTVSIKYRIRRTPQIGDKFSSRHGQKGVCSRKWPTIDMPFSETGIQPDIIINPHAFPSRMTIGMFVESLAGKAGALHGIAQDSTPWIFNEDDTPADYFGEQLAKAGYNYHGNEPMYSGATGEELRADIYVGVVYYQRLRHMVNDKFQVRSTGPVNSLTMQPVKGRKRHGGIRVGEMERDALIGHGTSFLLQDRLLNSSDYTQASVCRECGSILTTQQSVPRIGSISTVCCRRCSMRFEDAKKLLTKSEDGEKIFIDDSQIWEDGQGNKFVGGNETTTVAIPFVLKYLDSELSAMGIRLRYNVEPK
Briefly: cryo-EM structure.

B1: RNA polymerase I subunit A12 (natural protein)
chain: MSVVGSLIFCLDCGDLLENPNAVLGSNVECSQCKAIYPKSQFSNLKVVTTTADDAFPSSLRAKKSVVKTSLKKNELKDGATIKEKCPQCGNEEMNYHTLQLRSADEGATVFYTCTSCGYKFRTNN
Regarding B1, the binding result is “binds”.

B2: A49/A34.5 heterodimer of RNA polymerase I (complex)
chain 1: MSVKRSVSEIEIESVQDQPSVAVGSFFKGFRAPSDTTFDLYKKKKSEKDEFVLHGENERLEYEGYTDSSSQASNQYVVGLFNPEKKSIQLYKAPVLVSKVVSKSSKNLRGPKIKSKSDTRPSALRNALGEAFGTKKAKKAIADLERNRIDSDKLTDSAIDIVDSVRTASKDLPTRAQLDEITSNDRPTPLANIDATDVEQIYPIESIIPKKELQFIRVSSILKEADKEKKLELFPYQNNSKYVAKKLDSLTQPSQMTKLQLLYYLSLLLGVYENRRVNNKTKLLERLNSPPEILVDGILSRFTVIKPGQFGRSKDRSYFIDPQNEDKILCYILAIIMHLDNFIVEITPLAHELNLKPSKVVSLFRVLGAIVKGATVAQAEAFGIPKSTAASYKIATMKVPFKLPEMTRRGRGPRR
chain 2: MSKLSKDYVSDSDSDDEVISNEFSIPDGFKKCKHLKNFPLNGDNKKKAKQQQVWLIKFPSNVDISKLKSLPVDFESSTTMTIDKHDYKIMDDTDIESSLTQDNLSNMTLLVPSESKESLKIASTAKDNAPLQFDKVFSVSETAKIPAIDYSKVRVPRKDVPKVEGLKLEHFATGYDAEDFHVAEEVKENKKEPKKRSHHDDEEESSEKKKKKKEKREKREKKDKKDKKKKHRD
On to B2, for which the binding result is listed as “binds”.

The values above are taken from article PMC12144180 (Nature Communications, 2025).
